Where two headings read alike, the source gives them in different places.
T1: cynomolgus IGFBP7 recombinant protein (cynomolgus)
T1 chain: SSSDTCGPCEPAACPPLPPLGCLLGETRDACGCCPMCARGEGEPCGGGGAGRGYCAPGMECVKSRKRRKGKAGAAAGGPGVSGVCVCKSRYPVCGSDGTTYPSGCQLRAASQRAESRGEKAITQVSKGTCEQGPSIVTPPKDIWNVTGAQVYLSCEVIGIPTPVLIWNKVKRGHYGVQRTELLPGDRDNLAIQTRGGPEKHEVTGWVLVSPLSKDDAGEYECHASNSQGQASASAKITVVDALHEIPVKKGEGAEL

T2: human IGFBP7 recombinant protein (UniProt Q16270 27-282, biotinylated with EZ-LINK NHS-PEG4 biotin in the BLI assays (sites not given))
T2 chain: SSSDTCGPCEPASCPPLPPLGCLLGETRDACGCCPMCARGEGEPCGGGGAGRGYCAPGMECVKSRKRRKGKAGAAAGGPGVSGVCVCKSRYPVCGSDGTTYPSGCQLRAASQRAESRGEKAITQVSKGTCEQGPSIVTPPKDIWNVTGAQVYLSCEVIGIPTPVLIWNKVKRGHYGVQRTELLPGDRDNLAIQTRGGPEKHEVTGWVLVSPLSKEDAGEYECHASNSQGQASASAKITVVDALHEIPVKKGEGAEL

T3: mouse IGFBP7 recombinant protein (mouse, UniProt Q61581 26-281, biotinylated with EZ-LINK NHS-PEG4 biotin in the BLI assays (sites not given))
T3 chain: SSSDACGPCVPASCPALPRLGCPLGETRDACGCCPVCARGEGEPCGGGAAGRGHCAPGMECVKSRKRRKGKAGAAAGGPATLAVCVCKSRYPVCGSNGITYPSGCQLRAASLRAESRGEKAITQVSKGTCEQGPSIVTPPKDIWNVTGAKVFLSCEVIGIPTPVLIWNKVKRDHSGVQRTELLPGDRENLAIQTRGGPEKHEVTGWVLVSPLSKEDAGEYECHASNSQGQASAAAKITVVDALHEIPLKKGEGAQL

T4: human IGFBP7 recombinant protein (human, UniProt Q16270 27-282, biotinylated with EZ-LINK NHS-PEG4 biotin in the BLI assays (sites not given))
T4 construct: Soluble protein used for ELISA coating and, biotinylated, on streptavidin biosensors (Octet); also called hIGFBP7; biotinylated IGFBP7 protein
T4 sequence: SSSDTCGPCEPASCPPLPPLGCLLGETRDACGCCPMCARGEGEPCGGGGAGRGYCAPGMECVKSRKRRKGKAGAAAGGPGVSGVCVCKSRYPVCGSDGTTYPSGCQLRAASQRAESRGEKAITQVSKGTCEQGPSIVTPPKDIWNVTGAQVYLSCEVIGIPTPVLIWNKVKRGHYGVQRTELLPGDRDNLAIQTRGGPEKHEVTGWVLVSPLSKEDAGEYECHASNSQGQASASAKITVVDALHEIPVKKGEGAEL

T5: mouse IGFBP7 recombinant protein (mouse, UniProt Q61581 26-281, limits assumed, biotinylated with EZ-LINK NHS-PEG4 biotin in the BLI assays (sites not given))
T5 construct: Soluble protein in ELISA and BLI; also called mIGFBP7
T5 sequence (looked up): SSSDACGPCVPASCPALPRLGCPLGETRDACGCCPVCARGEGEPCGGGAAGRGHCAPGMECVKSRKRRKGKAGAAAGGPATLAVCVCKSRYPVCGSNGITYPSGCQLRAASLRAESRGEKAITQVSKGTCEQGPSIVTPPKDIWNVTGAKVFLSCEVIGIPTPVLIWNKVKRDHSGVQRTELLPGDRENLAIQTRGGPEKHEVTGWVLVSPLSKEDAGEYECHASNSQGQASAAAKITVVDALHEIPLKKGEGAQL

T6: mouse IGFBP7 displayed on cells (HEK293T or CHO-K1) (mouse, UniProt Q61581 26-281)
T6 construct: whole, on cells;domain: CD80 transmembrane domain; also called mIGFBP7; mIGFBP7-HEK cells; not shown: linker; CD80 transmembrane domain
T6 sequence (looked up): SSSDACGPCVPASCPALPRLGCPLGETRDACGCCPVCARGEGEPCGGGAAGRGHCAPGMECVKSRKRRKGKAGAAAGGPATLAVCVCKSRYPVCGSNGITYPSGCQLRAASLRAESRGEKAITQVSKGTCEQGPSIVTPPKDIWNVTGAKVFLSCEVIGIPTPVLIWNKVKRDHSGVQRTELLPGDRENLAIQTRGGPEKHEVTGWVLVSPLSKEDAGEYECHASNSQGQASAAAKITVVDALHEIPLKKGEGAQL

T7: human IGFBP7 displayed on HEK293T cells (human, UniProt Q16270 27-282)
T7 construct: domain: CD80 transmembrane domain; signal peptide stated as residues 1-26; also called hIGFBP7; hIGFBP7-HEK cells; not shown: linker; CD80 transmembrane domain
T7 sequence: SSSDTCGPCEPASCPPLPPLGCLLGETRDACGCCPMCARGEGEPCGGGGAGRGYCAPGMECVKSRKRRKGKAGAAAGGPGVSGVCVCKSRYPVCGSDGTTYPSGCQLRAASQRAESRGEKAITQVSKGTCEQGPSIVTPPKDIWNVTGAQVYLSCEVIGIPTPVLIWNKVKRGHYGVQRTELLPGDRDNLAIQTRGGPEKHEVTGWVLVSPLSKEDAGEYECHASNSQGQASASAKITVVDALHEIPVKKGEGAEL

T8: His-tagged human IGFBP7 recombinant protein (human, UniProt Q16270 27-282)
T8 construct: not shown: His tag
T8 sequence: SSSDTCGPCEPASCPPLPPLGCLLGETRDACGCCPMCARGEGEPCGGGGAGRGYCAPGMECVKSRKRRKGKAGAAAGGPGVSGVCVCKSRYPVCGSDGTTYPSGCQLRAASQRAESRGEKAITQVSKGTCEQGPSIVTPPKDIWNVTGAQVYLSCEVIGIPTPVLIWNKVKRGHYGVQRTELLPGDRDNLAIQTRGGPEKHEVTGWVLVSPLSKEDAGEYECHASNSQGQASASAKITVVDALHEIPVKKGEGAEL

B1: D4-mIgG2a nanobody Fc-fusion (Fc fusion)
chain: VQLQESGGGLVQTGGSLRLSCAASGRSFTFSSYAMGWFRHAPGKEREFLTAITWSGDYTYYTDSVKGRSTISRDNAKNTVYLQLNNLKPEDTAVYYCAAKFSQVSAFFATVSEYEYWGQGTQVTVSS
notes: VHH fused with mIgG2a Fc fragment, expressed in Expi293 cells; also called monospecific D4-mIgG2a; not shown: mouse IgG2a Fc fragment (mIgG2a Fc)
B2: anti-IGFBP7 nanobody D04 (VHH)
VHH: VQLQESGGGLVQTGGSLRLSCAASGRSFTFSSYAMGWFRHAPGKEREFLTAITWSGDYTYYTDSVKGRSTISRDNAKNTVYLQLNNLKPEDTAVYYCAAKFSQVSAFFATVSEYEYWGQGTQVTVSS
notes: Llama nanobody expressed in E. coli as His6-tagged protein; also called D4; D4 VHH; not shown: His6 tag
B3: A11 mIgG2a (antibody, V domains shown)
VH: VQLQESEGGWSGGGSGSGDFDYEKMANANNGAMTDNADAGKQREFVAAITSGGSINYADSVKGRFTISRDNTKKTVYLQMNSLKPEDTAVYVCNIKAHPNPWGFDNDYWGQGTQVTVSS
B4: anti-IGFBP7 nanobody A07 (VHH)
VHH: VQLQESEGGWSGGGSGSGDFGYDKMANAINGAMTDNADAGKQREFVAAITSGGSINYADSVKGRFTISTDNAKKTVYLQMNSLKPEDTAVYVCNIKAHPNPWGFDNDYWGQGTPATASS
notes: Llama nanobody expressed in E. coli as His6-tagged protein; also called A7; not shown: His6 tag
B5: anti-IGFBP7 nanobody A11 (VHH)
VHH: VQLQESEGGWSGGGSGSGDFDYEKMANANNGAMTDNADAGKQREFVAAITSGGSINYADSVKGRFTISRDNTKKTVYLQMNSLKPEDTAVYVCNIKAHPNPWGFDNDYWGQGTQVTVSS
notes: Llama nanobody expressed in E. coli as His6-tagged protein; also called A11 VHH; not shown: His6 tag
B6: A1-mIgG1 nanobody Fc-fusion (Fc fusion)
chain: VQLQESGGGLVQAGGSLRLSCAASGSLFAIDKWGWYRQVAGNERELVAWRYSPVSINYGDSVKGRFTVSGDSSRKRVYLQMNSLKPDDTAVYRCAAVISGAWYWGQGTQVTVSS
notes: VHH fused with mIgG1 Fc fragment, expressed in Expi293 cells; also called monospecific A1-mIgG1; not shown: mouse IgG1 Fc fragment (mIgG1 Fc)

What was measured:
[1] = target: T1, cynomolgus IGFBP7 recombinant protein; assay: BLI
[2] = target: T2, human IGFBP7 recombinant protein; assay: BLI
[3] = target: T3, mouse IGFBP7 recombinant protein; assay: BLI
[4] = target: T4, human IGFBP7 recombinant protein; assay: BLI (Octet QKe), biotinylated IGFBP7 on streptavidin biosensors (FIG. 9)
Procedure: (§1) The binding affinity of anti-IGFBP7 nanobody Fc-fusion constructs (e.g., VHH-Fc-fusion constructs) were determined with bio-layer interferometry (BLI) using Octet QKe (Fortebio). Human, mouse, and cynomolgus IGFBP7 were biotinylated using EZ-LINK NHS-PEG4 biotin (Thermo Fisher Scientific). Streptavidin biosensors (ForteBio) were used to load biotinylated IGFBP7 protein (300 seconds in 5 μg/mL). Baseline was stabilized for 60 seconds in 1× kinetics buffer (ForteBio) before anti-IGFBP7 Fc-fucion proteins (serial dilution) were allowed to associate for 300 seconds with captured hIGFBP7 or mIGFBP7. Then the sensors were dissociated in 1× kinetics buffer for 600 seconds. Data analysis was performed on ForteBio Data Analysis HT 11.1 software.

[5] = target: T2, human IGFBP7 recombinant protein; assay: BLI
[6] = target: T5, mouse IGFBP7 recombinant protein; assay: BLI (Octet QKe), biotinylated IGFBP7 on streptavidin biosensors (FIG. 10)
Procedure: as §1

[7] = target: T3, mouse IGFBP7 recombinant protein; assay: BLI
[8] = target: T3, mouse IGFBP7 recombinant protein; assay: BLI
[9] = target: T2, human IGFBP7 recombinant protein; assay: BLI
[10] = target: T6, mouse IGFBP7 displayed on cells …; assay: flow cytometry on mouse IGFBP7 displaying HEK293T cells, nanobody 10 ug/ml, APC anti-HIS detection
Procedure: (§2) Human IGFBP7 and mouse IGFBP7 displaying HEK293T cells were detached by incubation with TrypLE reagents (Thermos Fisher), which preserves the integrity of IGFBP7 on the cell surface. Then the cells were incubated with anti-IGFBP7 nanobodies at 10 μg/ml for 30 minutes in 4° C. After washing by FACS buffer, the cells were incubated with APC conjugated anti-HIS antibodies (Biolegend) for 30 minutes in 4° C. After washing by FACS buffer twice, the samples were acquired in NovoCyte Flow Cytometer and analyzed by NovoExpress software.

[11] = target: T5, mouse IGFBP7 recombinant protein; assay: ELISA
[12] = target: T4, human IGFBP7 recombinant protein; assay: ELISA
[13] = target: T7, human IGFBP7 displayed on HEK293T cells; assay: flow cytometry on human IGFBP7 displaying HEK293T cells, nanobody 10 ug/ml, APC anti-HIS detection
Procedure: as §2

[14] = target: T8, His-tagged human IGFBP7 recombinant …; assay: flow cytometry blockade assay: nanobody 50 ug/mL pre-incubated with His-tagged human IGFBP7 1 ug/mL, then human CD93 CHO cells (FIG. 14)
Procedure: Anti-IGFBP7 nanobodies and nanobody-Fc fusions (50 μg/mL) generated in previous examples was incubated with His-tagged human IGFBP7 recombinant protein (1 μg/mL) for 30 minutes in 4° C. Human CD93 expressing CHO cells (1×10⁵ per well) were treated the mixture for 30 minutes at 4° C. Then the cells were washed with FACS buffer and incubated with anti-IGFBP7 monoclonal rabbit antibody (Sino Biological Inc, Catalog #13100-R003) at 1 μg/mL for 30 minutes in 4° C. After incubation, the cells were washed with FACS buffer and incubated with PE-conjugated anti-rabbit IgG antibody ([…]) for 30 minutes in 4° C. After washing with FACS buffer twice, the samples were analyzed and data acquired in NovoCyte Flow.

| Binder | Kd [1] [nM] | Kd [2] [nM] | Kd [3] [nM] | binding result [4] | Kd [5] [nM] | binding result [6] | Kd [7] [nM] | Kd [8] [nM] | Kd [9] [nM] | percent blocking of the CD93-IGFBP7 interaction [14] [%] | other results |
| --- | --- | --- | --- | --- | --- | --- | --- | --- | --- | --- | --- |
| B1 | 1.84 | 1.22 | 10.2 | binds | 1.22 | binds | 12.1 | 10.2 | 1.16 | – | – |
| B2 | – | – | – | – | – | – | – | – | – | – | binding result [10]: binds; binding result [11]: binds; binding result [12]: binds; binding result [13]: binds |
| B3 | – | – | – | – | – | – | 0.0177 | – | 0.0129 | – | – |
| B4 | – | – | – | – | – | – | – | – | – | ≥ 50 | – |
| B5 | – | – | – | – | – | – | – | – | – | ≥ 50 | – |
| B6 | 3.19 | 3.82 | 25.8 | binds | 3.82 | binds | – | 25.8 | – | – | – |

Reference: patent publication US20240150466A1 (DYNAMICURE BIOTECHNOLOGY, published 2024)
